Biological target: T1, human CD39 expressed at the cell surface (human, UniProt P49961 1-510)
T1 construct: On CHO transfectants, Hek-293T transfectants, Ramos and Mino tumor cells; also called huCD39; CHO-huCD39
T1 sequence: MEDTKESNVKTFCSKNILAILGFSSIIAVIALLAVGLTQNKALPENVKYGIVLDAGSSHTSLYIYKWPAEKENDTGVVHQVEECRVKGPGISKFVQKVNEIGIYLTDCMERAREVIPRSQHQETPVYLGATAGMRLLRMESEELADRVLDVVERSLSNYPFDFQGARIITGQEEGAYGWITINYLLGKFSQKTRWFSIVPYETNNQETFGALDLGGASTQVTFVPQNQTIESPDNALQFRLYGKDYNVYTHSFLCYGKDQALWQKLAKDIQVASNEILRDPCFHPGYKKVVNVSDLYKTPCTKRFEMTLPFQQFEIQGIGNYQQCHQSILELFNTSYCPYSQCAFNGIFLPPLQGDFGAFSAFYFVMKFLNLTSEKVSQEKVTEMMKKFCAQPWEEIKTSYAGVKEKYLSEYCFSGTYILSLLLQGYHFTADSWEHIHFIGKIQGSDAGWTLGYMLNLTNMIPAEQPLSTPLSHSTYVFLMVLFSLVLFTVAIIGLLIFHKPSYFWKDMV
Assay: flow cytometry titration on Ramos lymphoma cells (Mean of Fluorescence), panels L0, L1 and L1*

EC50 (read off the curve): ~0.5 µg/mL
B1: I-394 (antibody, human IgG1, V domains shown)
VH: EVQLQQSGPELVKPGASVKMSCKASGYTFTDYNMHWVKQSHGRTLEWIGYIVPLNGGSTFNQKFKGRATLTVNTSSRTAYMELRSLTSEDSAAYYCARGGTRFAYWGQGTLVTVSA
VL: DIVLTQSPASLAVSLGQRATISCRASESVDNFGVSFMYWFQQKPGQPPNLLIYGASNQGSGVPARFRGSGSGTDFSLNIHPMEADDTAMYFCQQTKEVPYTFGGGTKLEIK

Source: patent publication US20230025732A1 (INNATE PHARMA, published 2023)
